Test results taken from paper PMC2234252 (The Journal of Cell Biology, 2008).

B1: hZW10 C4 (aa 1–496) (domain or fragment, human, UniProt O43264 1-496, looked up)
chain: MASFVTEVLAHSGRLEKEDLGTRISRLTRRVEEIKGEVCNMISKKYSEFLPSMQSAQGLITQVDKLSEDIDLLKSRIESEVRRDLHVSTGEFTDLKQQLERDSVVLSLLKQLQEFSTAIEEYNCALTEKKYVTGAQRLEEAQKCLKLLKSRKCFDLKILKSLSMELTIQKQNILYHLGEEWQKLIVWKFPPSKDTSSLESYLQTELHLYTEQSHKEEKTPMPPISSVLLAFSVLGELHSKLKSFGQMLLKYILRPLASCPSLHAVIESQPNIVIIRFESIMTNLEYPSPSEVFTKIRLVLEVLQKQLLDLPLDTDLENEKTSTVPLAEMLGDMIWEDLSECLIKNCLVYSIPTNSSKLQQYEEIIQSTEEFENALKEMRFLKGDTTDLLKYARNINSHFANKKCQDVIVAARNLMTSEIHNTVKIIPDSKINVPELPTPDEDNKLEVQKVSNTQYHEVMNLEPENTLDQHSFSLPTCRISESVKKLMELAYQTLLE
B2: hZW10 C3 (aa 1–560) (domain or fragment, human, UniProt O43264 1-560, looked up)
chain: MASFVTEVLAHSGRLEKEDLGTRISRLTRRVEEIKGEVCNMISKKYSEFLPSMQSAQGLITQVDKLSEDIDLLKSRIESEVRRDLHVSTGEFTDLKQQLERDSVVLSLLKQLQEFSTAIEEYNCALTEKKYVTGAQRLEEAQKCLKLLKSRKCFDLKILKSLSMELTIQKQNILYHLGEEWQKLIVWKFPPSKDTSSLESYLQTELHLYTEQSHKEEKTPMPPISSVLLAFSVLGELHSKLKSFGQMLLKYILRPLASCPSLHAVIESQPNIVIIRFESIMTNLEYPSPSEVFTKIRLVLEVLQKQLLDLPLDTDLENEKTSTVPLAEMLGDMIWEDLSECLIKNCLVYSIPTNSSKLQQYEEIIQSTEEFENALKEMRFLKGDTTDLLKYARNINSHFANKKCQDVIVAARNLMTSEIHNTVKIIPDSKINVPELPTPDEDNKLEVQKVSNTQYHEVMNLEPENTLDQHSFSLPTCRISESVKKLMELAYQTLLEATTSSDQCAVQLFYSVRNIFHLFHDVVPTYHKENLQKLPQLAAIHHNNCMYIAHHLLTLGHQFR
B3: hZW10 C1 (aa 1–772) (domain or fragment, human, UniProt O43264 1-772, looked up)
chain: MASFVTEVLAHSGRLEKEDLGTRISRLTRRVEEIKGEVCNMISKKYSEFLPSMQSAQGLITQVDKLSEDIDLLKSRIESEVRRDLHVSTGEFTDLKQQLERDSVVLSLLKQLQEFSTAIEEYNCALTEKKYVTGAQRLEEAQKCLKLLKSRKCFDLKILKSLSMELTIQKQNILYHLGEEWQKLIVWKFPPSKDTSSLESYLQTELHLYTEQSHKEEKTPMPPISSVLLAFSVLGELHSKLKSFGQMLLKYILRPLASCPSLHAVIESQPNIVIIRFESIMTNLEYPSPSEVFTKIRLVLEVLQKQLLDLPLDTDLENEKTSTVPLAEMLGDMIWEDLSECLIKNCLVYSIPTNSSKLQQYEEIIQSTEEFENALKEMRFLKGDTTDLLKYARNINSHFANKKCQDVIVAARNLMTSEIHNTVKIIPDSKINVPELPTPDEDNKLEVQKVSNTQYHEVMNLEPENTLDQHSFSLPTCRISESVKKLMELAYQTLLEATTSSDQCAVQLFYSVRNIFHLFHDVVPTYHKENLQKLPQLAAIHHNNCMYIAHHLLTLGHQFRLRLAPILCDGTATFVDLVPGFRRLGTECFLAQMRAQKGELLERLSSARNFSNMDDEENYSAASKAVRQVLHQLKRLGIVWQDVLPVNIYCKAMGTLLNTAISEVIGKITALEDISTEDGDRLYSLCKTVMDEGPQVFAPLSEESKNKKYQEEVPVYVPKWMPFKELMMMLQASLQEIGDRWADGKGPLAAAFSSSEVKALIRALFQNTERRA
B4: hZW10 C9 (aa 1–139) (domain or fragment, human, UniProt O43264 1-139, looked up)
chain: MASFVTEVLAHSGRLEKEDLGTRISRLTRRVEEIKGEVCNMISKKYSEFLPSMQSAQGLITQVDKLSEDIDLLKSRIESEVRRDLHVSTGEFTDLKQQLERDSVVLSLLKQLQEFSTAIEEYNCALTEKKYVTGAQRLE
B5: hZW10 C6 (aa 1–356) (domain or fragment, human, UniProt O43264 1-356, looked up)
chain: MASFVTEVLAHSGRLEKEDLGTRISRLTRRVEEIKGEVCNMISKKYSEFLPSMQSAQGLITQVDKLSEDIDLLKSRIESEVRRDLHVSTGEFTDLKQQLERDSVVLSLLKQLQEFSTAIEEYNCALTEKKYVTGAQRLEEAQKCLKLLKSRKCFDLKILKSLSMELTIQKQNILYHLGEEWQKLIVWKFPPSKDTSSLESYLQTELHLYTEQSHKEEKTPMPPISSVLLAFSVLGELHSKLKSFGQMLLKYILRPLASCPSLHAVIESQPNIVIIRFESIMTNLEYPSPSEVFTKIRLVLEVLQKQLLDLPLDTDLENEKTSTVPLAEMLGDMIWEDLSECLIKNCLVYSIPTNSS
B6: hZW10 C8 (aa 1–224) (domain or fragment, human, UniProt O43264 1-224, looked up)
chain: MASFVTEVLAHSGRLEKEDLGTRISRLTRRVEEIKGEVCNMISKKYSEFLPSMQSAQGLITQVDKLSEDIDLLKSRIESEVRRDLHVSTGEFTDLKQQLERDSVVLSLLKQLQEFSTAIEEYNCALTEKKYVTGAQRLEEAQKCLKLLKSRKCFDLKILKSLSMELTIQKQNILYHLGEEWQKLIVWKFPPSKDTSSLESYLQTELHLYTEQSHKEEKTPMPPI
B7: hZW10 C7 (aa 1–318) (domain or fragment, human, UniProt O43264 1-318, looked up)
chain: MASFVTEVLAHSGRLEKEDLGTRISRLTRRVEEIKGEVCNMISKKYSEFLPSMQSAQGLITQVDKLSEDIDLLKSRIESEVRRDLHVSTGEFTDLKQQLERDSVVLSLLKQLQEFSTAIEEYNCALTEKKYVTGAQRLEEAQKCLKLLKSRKCFDLKILKSLSMELTIQKQNILYHLGEEWQKLIVWKFPPSKDTSSLESYLQTELHLYTEQSHKEEKTPMPPISSVLLAFSVLGELHSKLKSFGQMLLKYILRPLASCPSLHAVIESQPNIVIIRFESIMTNLEYPSPSEVFTKIRLVLEVLQKQLLDLPLDTDLEN
B8: hZW10 C2 (aa 1–698) (domain or fragment, human, UniProt O43264 1-698, looked up)
chain: MASFVTEVLAHSGRLEKEDLGTRISRLTRRVEEIKGEVCNMISKKYSEFLPSMQSAQGLITQVDKLSEDIDLLKSRIESEVRRDLHVSTGEFTDLKQQLERDSVVLSLLKQLQEFSTAIEEYNCALTEKKYVTGAQRLEEAQKCLKLLKSRKCFDLKILKSLSMELTIQKQNILYHLGEEWQKLIVWKFPPSKDTSSLESYLQTELHLYTEQSHKEEKTPMPPISSVLLAFSVLGELHSKLKSFGQMLLKYILRPLASCPSLHAVIESQPNIVIIRFESIMTNLEYPSPSEVFTKIRLVLEVLQKQLLDLPLDTDLENEKTSTVPLAEMLGDMIWEDLSECLIKNCLVYSIPTNSSKLQQYEEIIQSTEEFENALKEMRFLKGDTTDLLKYARNINSHFANKKCQDVIVAARNLMTSEIHNTVKIIPDSKINVPELPTPDEDNKLEVQKVSNTQYHEVMNLEPENTLDQHSFSLPTCRISESVKKLMELAYQTLLEATTSSDQCAVQLFYSVRNIFHLFHDVVPTYHKENLQKLPQLAAIHHNNCMYIAHHLLTLGHQFRLRLAPILCDGTATFVDLVPGFRRLGTECFLAQMRAQKGELLERLSSARNFSNMDDEENYSAASKAVRQVLHQLKRLGIVWQDVLPVNIYCKAMGTLLNTAISEVIGKITALEDISTEDGDRLYSLCKTVMDEGPQVFA
B9: hZW10 full length (aa 1–779) (natural protein, human, UniProt O43264 1-779, looked up)
chain: MASFVTEVLAHSGRLEKEDLGTRISRLTRRVEEIKGEVCNMISKKYSEFLPSMQSAQGLITQVDKLSEDIDLLKSRIESEVRRDLHVSTGEFTDLKQQLERDSVVLSLLKQLQEFSTAIEEYNCALTEKKYVTGAQRLEEAQKCLKLLKSRKCFDLKILKSLSMELTIQKQNILYHLGEEWQKLIVWKFPPSKDTSSLESYLQTELHLYTEQSHKEEKTPMPPISSVLLAFSVLGELHSKLKSFGQMLLKYILRPLASCPSLHAVIESQPNIVIIRFESIMTNLEYPSPSEVFTKIRLVLEVLQKQLLDLPLDTDLENEKTSTVPLAEMLGDMIWEDLSECLIKNCLVYSIPTNSSKLQQYEEIIQSTEEFENALKEMRFLKGDTTDLLKYARNINSHFANKKCQDVIVAARNLMTSEIHNTVKIIPDSKINVPELPTPDEDNKLEVQKVSNTQYHEVMNLEPENTLDQHSFSLPTCRISESVKKLMELAYQTLLEATTSSDQCAVQLFYSVRNIFHLFHDVVPTYHKENLQKLPQLAAIHHNNCMYIAHHLLTLGHQFRLRLAPILCDGTATFVDLVPGFRRLGTECFLAQMRAQKGELLERLSSARNFSNMDDEENYSAASKAVRQVLHQLKRLGIVWQDVLPVNIYCKAMGTLLNTAISEVIGKITALEDISTEDGDRLYSLCKTVMDEGPQVFAPLSEESKNKKYQEEVPVYVPKWMPFKELMMMLQASLQEIGDRWADGKGPLAAAFSSSEVKALIRALFQNTERRAAALAKIK
B10: hZW10 N1 (aa 52–779) (domain or fragment, human, UniProt O43264 52-779, looked up)
chain: SMQSAQGLITQVDKLSEDIDLLKSRIESEVRRDLHVSTGEFTDLKQQLERDSVVLSLLKQLQEFSTAIEEYNCALTEKKYVTGAQRLEEAQKCLKLLKSRKCFDLKILKSLSMELTIQKQNILYHLGEEWQKLIVWKFPPSKDTSSLESYLQTELHLYTEQSHKEEKTPMPPISSVLLAFSVLGELHSKLKSFGQMLLKYILRPLASCPSLHAVIESQPNIVIIRFESIMTNLEYPSPSEVFTKIRLVLEVLQKQLLDLPLDTDLENEKTSTVPLAEMLGDMIWEDLSECLIKNCLVYSIPTNSSKLQQYEEIIQSTEEFENALKEMRFLKGDTTDLLKYARNINSHFANKKCQDVIVAARNLMTSEIHNTVKIIPDSKINVPELPTPDEDNKLEVQKVSNTQYHEVMNLEPENTLDQHSFSLPTCRISESVKKLMELAYQTLLEATTSSDQCAVQLFYSVRNIFHLFHDVVPTYHKENLQKLPQLAAIHHNNCMYIAHHLLTLGHQFRLRLAPILCDGTATFVDLVPGFRRLGTECFLAQMRAQKGELLERLSSARNFSNMDDEENYSAASKAVRQVLHQLKRLGIVWQDVLPVNIYCKAMGTLLNTAISEVIGKITALEDISTEDGDRLYSLCKTVMDEGPQVFAPLSEESKNKKYQEEVPVYVPKWMPFKELMMMLQASLQEIGDRWADGKGPLAAAFSSSEVKALIRALFQNTERRAAALAKIK
B11: hZW10 C5 (aa 1–410) (domain or fragment, human, UniProt O43264 1-410, looked up)
chain: MASFVTEVLAHSGRLEKEDLGTRISRLTRRVEEIKGEVCNMISKKYSEFLPSMQSAQGLITQVDKLSEDIDLLKSRIESEVRRDLHVSTGEFTDLKQQLERDSVVLSLLKQLQEFSTAIEEYNCALTEKKYVTGAQRLEEAQKCLKLLKSRKCFDLKILKSLSMELTIQKQNILYHLGEEWQKLIVWKFPPSKDTSSLESYLQTELHLYTEQSHKEEKTPMPPISSVLLAFSVLGELHSKLKSFGQMLLKYILRPLASCPSLHAVIESQPNIVIIRFESIMTNLEYPSPSEVFTKIRLVLEVLQKQLLDLPLDTDLENEKTSTVPLAEMLGDMIWEDLSECLIKNCLVYSIPTNSSKLQQYEEIIQSTEEFENALKEMRFLKGDTTDLLKYARNINSHFANKKCQDVIVA

These binders were tested against T1, hZwint-1 (human, UniProt O95229 1-277) (assay: two-hybrid).
T1 sequence (looked up): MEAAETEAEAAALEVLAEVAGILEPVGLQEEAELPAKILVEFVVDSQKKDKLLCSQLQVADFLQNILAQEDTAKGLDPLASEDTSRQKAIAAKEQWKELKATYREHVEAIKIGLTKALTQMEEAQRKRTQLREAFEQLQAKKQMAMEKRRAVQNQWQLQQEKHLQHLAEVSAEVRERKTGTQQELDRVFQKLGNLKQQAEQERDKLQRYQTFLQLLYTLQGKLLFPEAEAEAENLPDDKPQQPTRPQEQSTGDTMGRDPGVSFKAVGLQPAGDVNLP

| Binder | β-galactosidase assay |
| --- | --- |
| B1 | 1 |
| B2 | 2.5 |
| B3 | 3.4 |
| B4 | 445 |
| B5 | 275 |
| B6 | 233 |
| B7 | 132 |
| B8 | 2.6 |
| B9 | 187 |
| B10 | 2.14 |
| B11 | 26.6 |
